2 molecules from paper PMC5526940 (Scientific Reports, 2017) can be followed below.

The labels stand for the following.
B1: Phaseolus vulgaris erythroagglutinin (natural protein)
chain: ASQTSFSFQRFNETNLILQRDATVSSKGQLRLTNVNDNGEPTLSSLGRAFYSAPIQIWDNTTGAVAASPTSFTFNIDVPNNSGPADGLAFVLLPVGSQPKDKGGLLGLFNNYKYDSNAHTVAVEFDTLYNVHWDPKPRHIGIDVNSIKSIKTTTWDFVKGENAEVLITYDSSTKLLVASLVYPSLKTSFIVSDTVDLKSVLPEWVIVGFTATTGITKGNVETNDILSWSFASKLSDGTTSEALNLANFALNQIL
modifications: TRITC label
notes: Phaseolus vulgaris erythroagglutinin; also called PHA-E; source: bought: EY Laboratories or Vector Laboratories (TRITC-labelled)

Test in all cases: peptide or protein array
Holding throughout (conditions): both partners purified

Assay [1] addresses T1, chicken egg white ovalbumin (chicken, UniProt P01012 1-386).
T1 construct: Printed on the microarray at 0.5 mg/mL; source: bought: Sigma-Aldrich
T1 sequence (looked up): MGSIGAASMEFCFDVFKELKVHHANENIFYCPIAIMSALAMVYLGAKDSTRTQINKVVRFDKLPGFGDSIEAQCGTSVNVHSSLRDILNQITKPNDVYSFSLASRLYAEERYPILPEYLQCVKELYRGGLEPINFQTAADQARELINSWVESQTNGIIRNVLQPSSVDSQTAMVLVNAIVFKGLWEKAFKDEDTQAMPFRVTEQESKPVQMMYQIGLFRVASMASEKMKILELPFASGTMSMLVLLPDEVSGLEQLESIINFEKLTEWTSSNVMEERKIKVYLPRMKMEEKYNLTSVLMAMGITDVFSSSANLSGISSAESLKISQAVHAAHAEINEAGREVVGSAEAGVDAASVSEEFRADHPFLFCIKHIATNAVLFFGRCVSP

Assay [2] deals with B1.
For assay [3], the target named is T2, Phaseolus vulgaris leucoagglutinin (Phaseolus vulgaris, UniProt P05087 21-272, TRITC label).
T2 construct: Phaseolus vulgaris leucoagglutinin; also called PHA-L; source: bought: EY Laboratories or Vector Laboratories (TRITC-labelled)
T2 sequence: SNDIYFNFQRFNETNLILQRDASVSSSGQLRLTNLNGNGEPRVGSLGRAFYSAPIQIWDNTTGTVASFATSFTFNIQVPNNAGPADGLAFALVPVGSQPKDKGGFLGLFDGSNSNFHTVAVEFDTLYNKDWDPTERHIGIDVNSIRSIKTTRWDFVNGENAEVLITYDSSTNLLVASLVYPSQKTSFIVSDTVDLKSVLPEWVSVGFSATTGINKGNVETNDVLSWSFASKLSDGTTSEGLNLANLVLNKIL

B1: the binding result in assay [1] is listed as “binds”.

B2: chicken egg white ovomucoid (natural protein, UniProt P01005 25-210, looked up)
chain: AEVDCSRFPNATDKEGKDVLVCNKDLRPICGTDGVTYTNDCLLCAYSIEFGTNISKEHDGECKETVPMNCSSYANTTSEDGKVMVLCNRAFNPVCGTDGVTYDNECLLCAHKVEQGASVDKRHDGGCRKELAAVSVDCSEYPKPDCTAEDRPLCGSDNKTYGNKCNFCNAVVESNGTLTLSHFGKC
notes: Printed on the microarray at 0.5 mg/mL; also called OVM; source: bought: Sigma-Aldrich
As for B2, the binding result in assay [2] and in assay [3] was “binds” throughout.
